Test results as given in patent US20260265379A1.

Target: BTN3A expressed at the cell surface (human), O00481
Test: cell-based or functional assay

BTN3A expressed at the cell surface (human), O00481, sequence (O00481 30-513): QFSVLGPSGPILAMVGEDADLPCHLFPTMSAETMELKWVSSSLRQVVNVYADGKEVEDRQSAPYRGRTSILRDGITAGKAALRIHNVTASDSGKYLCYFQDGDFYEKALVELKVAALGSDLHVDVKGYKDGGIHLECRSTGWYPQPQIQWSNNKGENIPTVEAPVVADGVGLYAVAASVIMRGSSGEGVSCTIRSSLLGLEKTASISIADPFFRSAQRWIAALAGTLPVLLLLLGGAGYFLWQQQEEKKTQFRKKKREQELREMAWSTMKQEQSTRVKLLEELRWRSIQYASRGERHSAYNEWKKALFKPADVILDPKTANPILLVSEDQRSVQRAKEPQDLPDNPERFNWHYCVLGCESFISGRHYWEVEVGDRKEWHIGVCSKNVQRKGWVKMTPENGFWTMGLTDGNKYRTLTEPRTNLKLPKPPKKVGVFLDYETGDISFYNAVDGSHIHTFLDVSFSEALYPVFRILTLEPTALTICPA

Jurkat-Vy9Vo2 TCR MOP activation at 0.5 nM (fold-change to medium)	Jurkat-Vy9Vo2 TCR MOP activation at 5 nM (fold-change to medium)	Binder
0.9	1	bsAb039 (bispecific antibody, not shown: small tags and cut ends; a dimerising Fc or GST) heavy (part 1 of 2): QVQLVQSGVEVKKPGASVKVSCKASGYTFTNYYMYWVRQAPGQGLEWMGGINPSNGGTNFNEKFKNRVTLTTDSSTTTAYMELKSLQFDDTAVYYCARRDYRFDMGFDYWGQGTTVTVSS heavy (part 2 of 2): GGGGSGGGGSGGGGSGGGGSDIQMTQSPSSLSASVGDRVTITCHASQNINVWLSWYQQKPGKAPKLLIYKASNLHTGVPSRFTGSGSGTDFTFTISSLQPEDIATYYCQQGQTYPYTFGQGTKLEIKGGGGSGGGGSGGGGSGGGGSQVQLVQSGAEVKKPGASVKLSCKASGYIFTRYYMYWVKQRPGQGLEWIGEINPNNGGTKFNEKFKNRATLTVDKSISTAYMELSRLRSDDTAVYYCSREDDYDGTPFAMDYWGQGTLVTVSS heavy: GGGGSGGGGSGGGGSGGGGSDIQMTQSPSSLSASVGDRVTITCHASQNINVWLSWYQQKPGKAPKLLIYKASNLHTGVPSRFTGSGSGTDFTFTISSLQPEDIATYYCQQGQTYPYTFGQGTKLEIKGGGGSGGGGSGGGGSGGGGSQVQLVQSGAEVKKPGASVKLSCKASGYIFTRYYMYWVKQRPGQGLEWIGEINPNNGGTKFNEKFKNRATLTVDKSISTAYMELSRLRSDDTAVYYCSREDDYDGTPFAMDYWGQGTLVTVSS light: EIVLTQSPATLSLSPGERATLSCRASKGVSTSGYSYLHWYQQKPGQAPRLLIYLASYLESGVPARFSGSGSGTDFTLTISSLEPEDFAVYYCQHSRDLPLTFGGGTKVEIKRTVAAPSVFIFPPSDEQLKSGTASVVCLLNNFYPREAKVQWKVDNALQSGNSQESVTEQDSKDSTYSLSSTLTLSKADYEKHKVYACEVTHQGLSSPVTKSFNRGEC
1.2	1.1	bsAb053 (bispecific antibody, not shown: small tags and cut ends) heavy (part 1 of 2): QVQLVQSGVEVKKPGASVKVSCKASGYTFTNYYMYWVRQAPGQGLEWMGGINPSNGGTNFNEKFKNRVTLTTDSSTTTAYMELKSLQFDDTAVYYCARRDYRFDMGFDYWGQGTTVTVSS heavy (part 2 of 2): GGGGSGGGGSGGGGSGGGGSQVQLVQSGAEVKKPGASVKLSCKASGYIFTRYYMYWVKQRPGQGLEWIGEINPNNGGTKFNEKFKNRATLTVDKSISTAYMELSRLRSDDTAVYYCSREDDYDGTPFAMDYWGQGTLVTVSSGGGGSGGGGSGGGGSGGGGSDIQMTQSPSSLSASVGDRVTITCHASQNINVWLSWYQQKPGKAPKLLIYKASNLHTGVPSRFTGSGSGTDFTFTISSLQPEDIATYYCQQGQTYPYTFGQGTKLEIK heavy: QVQLVQSGVEVKKPGASVKVSCKASGYTFTNYYMYWVRQAPGQGLEWMGGINPSNGGTNFNEKFKNRVTLTTDSSTTTAYMELKSLQFDDTAVYYCARRDYRFDMGFDYWGQGTTVTVSS light: EIVLTQSPATLSLSPGERATLSCRASKGVSTSGYSYLHWYQQKPGQAPRLLIYLASYLESGVPARFSGSGSGTDFTLTISSLEPEDFAVYYCQHSRDLPLTFGGGTKVEIKRTVAAPSVFIFPPSDEQLKSGTASVVCLLNNFYPREAKVQWKVDNALQSGNSQESVTEQDSKDSTYSLSSTLTLSKADYEKHKVYACEVTHQGLSSPVTKSFNRGEC
1.1	1	bsAb042 (bispecific antibody, not shown: small tags and cut ends; a dimerising Fc or GST) heavy 1: QVQLVQSGVEVKKPGASVKVSCKASGYTFTNYYMYWVRQAPGQGLEWMGGINPSNGGTNFNEKFKNRVTLTTDSSTTTAYMELKSLQFDDTAVYYCARRDYRFDMGFDYWGQGTTVTVSS heavy 2: QVQLVQSGAEVKKPGASVKLSCKASGYIFTRYYMYWVKQRPGQGLEWIGEINPNNGGTKFNEKFKNRATLTVDKSISTAYMELSRLRSDDTAVYYCSREDDYDGTPFAMDYWGQGTLVTVSSGGGGSGGGGSGGGGSGGGGSDIQMTQSPSSLSASVGDRVTITCHASQNINVWLSWYQQKPGKAPKLLIYKASNLHTGVPSRFTGSGSGTDFTFTISSLQPEDIATYYCQQGQTYPYTFGQGTKLEIKGGGGSGGGGSGGGGSGGGGS light: EIVLTQSPATLSLSPGERATLSCRASKGVSTSGYSYLHWYQQKPGQAPRLLIYLASYLESGVPARFSGSGSGTDFTLTISSLEPEDFAVYYCQHSRDLPLTFGGGTKVEIKRTVAAPSVFIFPPSDEQLKSGTASVVCLLNNFYPREAKVQWKVDNALQSGNSQESVTEQDSKDSTYSLSSTLTLSKADYEKHKVYACEVTHQGLSSPVTKSFNRGECGGGGSGGGGSGGGGSGGGGSDIQMTQSPSSLSASVGDRVTITCHASQNINVWLSWYQQKPGKAPKLLIYKASNLHTGVPSRFTGSGSGTDFTFTISSLQPEDIATYYCQQGQTYPYTFGQGTKLEIKGGGGSGGGGSGGGGSGGGGSQVQLVQSGAEVKKPGASVKLSCKASGYIFTRYYMYWVKQRPGQGLEWIGEINPNNGGTKFNEKFKNRATLTVDKSISTAYMELSRLRSDDTAVYYCSREDDYDGTPFAMDYWGQGTLVTVSS
1.1	1.1	bsAb059 (bispecific antibody) heavy: QVQLVQSGVEVKKPGASVKVSCKASGYTFTNYYMYWVRQAPGQGLEWMGGINPSNGGTNFNEKFKNRVTLTTDSSTTTAYMELKSLQFDDTAVYYCARRDYRFDMGFDYWGQGTTVTVSSASTKGPSVFPLAPSSKSTSGGTAALGCLVKDYFPEPVTVSWNSGALTSGVHTFPAVLQSSGLYSLSSVVTVPSSSLGTQTYICNVNHKPSNTKVDKRVEPKSCDKTHTCPPCPAPEFEGGPSVFLFPPKPKDTLMISRTPEVTCVVVDVSHEDPEVKFNWYVDGVEVHNAKTKPREEQYNSTYRVVSVLTVLHQDWLNGKEYKCKVSNKALPASIEKTISKAKGQPREPQVYTLPPSREEMTKNQVSLTCLVKGFYPSDIAVEWESNGQPENNYKTTPPVLDSDGSFFLYSKLTVDKSRWQQGNVFSCSVMHEALHNHYTQKSLSLSPG light: QVQLVQSGAEVKKPGASVKLSCKASGYIFTRYYMYWVKQRPGQGLEWIGEINPNNGGTKFNEKFKNRATLTVDKSISTAYMELSRLRSDDTAVYYCSREDDYDGTPFAMDYWGQGTLVTVSSGGGGSGGGGSGGGGSGGGGSDIQMTQSPSSLSASVGDRVTITCHASQNINVWLSWYQQKPGKAPKLLIYKASNLHTGVPSRFTGSGSGTDFTFTISSLQPEDIATYYCQQGQTYPYTFGQGTKLEIKGGGGSGGGGSGGGGSGGGGSEIVLTQSPATLSLSPGERATLSCRASKGVSTSGYSYLHWYQQKPGQAPRLLIYLASYLESGVPARFSGSGSGTDFTLTISSLEPEDFAVYYCQHSRDLPLTFGGGTKVEIKRTVAAPSVFIFPPSDEQLKSGTASVVCLLNNFYPREAKVQWKVDNALQSGNSQESVTEQDSKDSTYSLSSTLTLSKADYEKHKVYACEVTHQGLSSPVTKSFNRGEC
